Here are results for twelve molecules from patent publication US20200079876A1 (BIOVERATIV USA, published 2020).

What is called Kd is the free concentration of one partner at which half of the binding sites on the other are occupied at equilibrium, for simple one-to-one binding. Usually koff stands for the rate constant with which the complex falls apart. As usually defined, the kon is the rate constant with which the complex forms. Read a high kon as fast association.

T1: recombinant human complement component C1s (rhC1s) (human, UniProt P09871 16-688)
T1 sequence (looked up): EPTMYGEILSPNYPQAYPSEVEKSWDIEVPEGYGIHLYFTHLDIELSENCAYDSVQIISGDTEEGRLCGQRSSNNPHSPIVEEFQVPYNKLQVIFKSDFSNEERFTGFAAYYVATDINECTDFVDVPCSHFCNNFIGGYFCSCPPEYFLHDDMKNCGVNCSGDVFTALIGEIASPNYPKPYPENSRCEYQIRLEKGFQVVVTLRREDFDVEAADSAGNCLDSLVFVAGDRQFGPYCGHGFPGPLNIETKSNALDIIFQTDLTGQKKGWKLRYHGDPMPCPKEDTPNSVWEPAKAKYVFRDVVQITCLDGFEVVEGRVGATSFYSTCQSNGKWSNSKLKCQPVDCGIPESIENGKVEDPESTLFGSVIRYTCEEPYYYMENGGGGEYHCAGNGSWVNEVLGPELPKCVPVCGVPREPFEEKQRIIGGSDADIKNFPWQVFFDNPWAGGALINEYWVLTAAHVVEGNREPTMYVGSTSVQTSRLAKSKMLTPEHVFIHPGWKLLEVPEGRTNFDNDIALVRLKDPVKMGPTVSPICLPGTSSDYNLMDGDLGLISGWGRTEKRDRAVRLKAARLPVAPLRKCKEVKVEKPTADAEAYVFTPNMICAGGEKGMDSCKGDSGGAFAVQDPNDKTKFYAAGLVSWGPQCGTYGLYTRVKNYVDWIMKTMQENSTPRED

T2: purified human activated C1s protein, two-chain form (Homo sapiens, UniProt P09871 16-688)
T2 construct: Purified protein bought from EMD Millipore; Biotin-labeled in the clone screen; also called active C1s; native C1s protein
T2 sequence: T1 sequence (looked up)

T3: Pro-C1s
T3 construct: also called purified pro-C1s protein
T3 chain: T1 sequence (looked up)

B1: antibody IPN-M9 (antibody, V domains shown)
VH: QVQLQQPGAELVRPGASVKLSCKVSGYTFTRYWMHWVKQRPGQGLEWIGEINPSNSDTDYNEEFKSKATLTVDKSSSTAYMHLSSLTSEDSAVYYCTIDDSAYGWFAYWGQGTLVTVSA
VL: DIVMTQSPAIMSASPGERVTMTCSASSSISYMHWYHQKPGTSPKRWIYDTSKLASGVPARFSGSGSGTSYSLTISSMEAEDAATYYCHQRSSFPTFGAGTKLELK
notes: Mouse monoclonal antibody (NZBW hybridoma)
B2: antibody IPN-M24 (antibody, V domains shown)
VH: EVKLQQSGAELVRPGVSVKISCKVSGYTFTDYAMHCVKQSHAKSLEWIGVISIYNGDASYNQKFKDKATMTVDKSSSTSYMDLARLTSEESAVYNCVREAPYLITTVFYAMDYWGQGTSVTVSS
VL: B1 VL with R18K, S26N, H36Q, A59T, S92F, F93Y, P94L, A98S, L104I
notes: as for B1
B3: antibody IPN-M29 (antibody, V domains shown)
VH: EVQLQQSGPELVKPGASVKISCKASGYSFTGFYMQWVKQSPEKNLEWIGEINPTTGDETYNQKFQAKATLTVDKSSSTAYMQLKSLTSEDSAVYFCASDFYDGSFAWFEYWGKDYLTVSA
VL: B1 VL with M4L, A9V, R18K, M32I, H36Q, F93Y, P94L, A98S, L104I
notes: as for B1
B4: antibody IPN-M33 (antibody, V domains shown)
VH: QVKLQQSGPELVKPGTSVRISCKTSGYSFTGYYMHWVKQSPEKSLEWIGEINPSIGDITYNQRFKAKATLTVDKSSSTAYMQLKSLTSEDSAVYYCASDYYGGGFAWFAYWGQGTLVTVSA
VL: B1 VL with P15S, R18K, S30N, H36Q, A82T, S92D, F93S, P94L, A98S, L104I
notes: as for B1
B5: antibody IPN-M27 (antibody, V domains shown)
VH: B1 VH with P7S, S85N
VL: B1 VL with M4L, P8T, T73A
notes: as for B1
B6: antibody IPN-M10 (antibody, V domains shown)
VH: B1 VH with A102V
VL: B1 VL with M4I
notes: as for B1
B7: antibody IPN-M23 (antibody, V domains shown)
VH: B1 VH with A102V
VL: B1 VL with S12F, H33P, H36P, T41P, S66F, S69F, T84P, T95P
notes: as for B1
B8: antibody IPN-M18 (antibody, V domains shown)
VH: EVQLQQSGPELVKPGASVKISCKASGYSFTGYYIHWVKQSPEKSLEWIGEINPTTNDTTYNQKFKAKATLTVDKSSNTAYMQLKSLTSEDSAVYYCSRDISGPAWFAYWGQGTLVTVSA
VL: DIVLTQTTAIMSASPGEKVTMTCSASSSISYMYWFQQKPGTSPKRWIYDTSKLASGVPARFSGSGSGTSYSLTISTMEAEDAATYYCHQRSSDPTFGGGTKLEINR
notes: as for B1
B9: antibody IPN-M1 (antibody, V domains shown)
VH: EVQLQQSGAELVRPGASVKLSCTASGFNIKDDYIHWVKQRPEQGLEWIGRIDPADDHTKYAPKFQDKATMTADTSSNTACLQLNSLTSEDTAVYYCAIYGSGWAWFPYWGQGTLVSVSA
VL: DIVLTQSTDYLAVSLGQRATISCKASQSVDYDGDSYMNWYQQKPGQPPKLLIYAASNLESGIPARFSGSGSGTDFTLNIHPVEEEDAATYYCQQSNEDPWTFGGGTKLEIK
notes: Mouse monoclonal antibody (NZBW hybridoma); of the 17, thirteen were IgG2a, one IgG2b, three IgG1; Same VL and VH as IPN-M3 and IPN-M13
B10: antibody IPN-M15 (antibody, V domains shown)
VH: B9 VH with Q3K, Q5E
VL: B9 VL with D1F, I2A, V3L, L4M, A64T, S71F, T106P
notes: as for B1
B11: antibody IPN-M2 (antibody, V domains shown)
VH: EVKLQQSGAELVRPGASVKLSCTASGFNIKDDYIHWVKQRPEQGLEWIGRIDPADGHTKYAPKFQVKATITADTSSNTAYLQLSSLTSEDTAVYYCARYGYGREVFDYWGQGTTLTVSS
VL: B9 VL with T8P, D9A, Y10S, P44T, L50I, A54D, T89I
notes: Mouse monoclonal antibody (NZBW hybridoma); Same VL and VH as IPN-M8
B12: antibody IPN-M28 (antibody, V domains shown)
VH: B9 VH
VL: B9 VL with S7T, T8P
notes: as for B1

Where a chain is given by its changes, count along the chain named.

The first test concerns the target T1, recombinant human complement component …. Description: cell-based or functional assay.
On to B1, for which the “Inhibition of C1s Protease Activity (%), single point with clone supernatant, relative to 100 nM nafamostat” value is 69%.

As for B2, the “Inhibition of C1s Protease Activity (%), single point with clone supernatant, relative to 100 nM nafamostat” value was found to be 68%.

B3: the “Inhibition of C1s Protease Activity (%), single point with clone supernatant, relative to 100 nM nafamostat” value was determined as 73%.

For B4, the “Inhibition of C1s Protease Activity (%), single point with clone supernatant, relative to 100 nM nafamostat” value came to 97%.

For B5, the “Inhibition of C1s Protease Activity (%), single point with clone supernatant, relative to 100 nM nafamostat” value came to 64%.

For B6, the “Inhibition of C1s Protease Activity (%), single point with clone supernatant, relative to 100 nM nafamostat” value worked out at 67%.

For B7, the “Inhibition of C1s Protease Activity (%), single point with clone supernatant, relative to 100 nM nafamostat” value was determined as 74%.

As to B8, the “Inhibition of C1s Protease Activity (%), single point with clone supernatant, relative to 100 nM nafamostat” value came to 68%.

For B9, the “Inhibition of C1s Protease Activity (%), single point with clone supernatant, relative to 100 nM nafamostat” value was determined as 79%.

For B10, the “Inhibition of C1s Protease Activity (%), single point with clone supernatant, relative to 100 nM nafamostat” value turned out to be 100%.

For B11, the “Inhibition of C1s Protease Activity (%), single point with clone supernatant, relative to 100 nM nafamostat” value was determined as 100%.

For B12, the “Inhibition of C1s Protease Activity (%), single point with clone supernatant, relative to 100 nM nafamostat” value was 92%.

The target is the same in the next test. As to the kind of experiment: cell-based or functional assay. The source holds these as a separate data set.
In the case of B1, the “inhibition of C1s protease activity (relative to nafamostat)” value (“inhibition … (relative to nafamostat)” below) is > 50%.

For the molecule B2, the “inhibition … (relative to nafamostat)” value is > 50%.

Regarding B3, the “inhibition … (relative to nafamostat)” value was > 50%.

Turning to B4, the “inhibition … (relative to nafamostat)” value was > 50%.

For B5, the “inhibition … (relative to nafamostat)” value was > 50%.

In the case of B6, the “inhibition … (relative to nafamostat)” value is > 50%.

With B7, the “inhibition … (relative to nafamostat)” value is > 50%.

B8: the “inhibition … (relative to nafamostat)” value is > 50%.

Consider B9, for which the “inhibition … (relative to nafamostat)” value was > 50%.

On to B10, for which the “inhibition … (relative to nafamostat)” value is > 50%.

In the case of B11, the “inhibition … (relative to nafamostat)” value is > 50%.

B12: the “inhibition … (relative to nafamostat)” value is > 50%.

A further test has as its target T2, purified human activated C1s protein, …. As to the kind of experiment: bio-layer interferometry (BLI), kinetic analysis. Background: In BLI a coated tip is dipped into the sample, and binding shifts an interference pattern.
B1 came in with a Kd of 0.608 nM, a koff of 0.000361 s⁻¹ and a kon of 594000 M⁻¹ s⁻¹.

Take B2: binding was characterised by a dissociation constant (Kd) of 1.01 nM, the koff worked out at 0.000499 s⁻¹ and the kon came out at 492000 M⁻¹ s⁻¹.

In the case of B3, the Kd was 1.28 nM, the koff stood at 0.000594 s⁻¹ and the kon was 463000 M⁻¹ s⁻¹.

As to B4, the Kd stood at 0.329 nM, the koff was 0.000154 s⁻¹ and the kon came out at 467000 M⁻¹ s⁻¹.

B5: binding was put at a Kd of 0.593 nM, the off-rate (koff) worked out at 0.000394 s⁻¹ and the kon turned out to be 664000 M⁻¹ s⁻¹.

For the molecule B6, the Kd is 0.607 nM, the koff was 0.000369 s⁻¹ and the kon was 608000 M⁻¹ s⁻¹.

In the case of B7, the dissociation constant Kd came out at 0.57 nM, the koff came to 0.000353 s⁻¹ and the kon turned out to be 619000 M⁻¹ s⁻¹.

For B8, binding was characterised by a dissociation constant (Kd) of 1.98 nM, the koff is 0.00102 s⁻¹ and the kon came to 517000 M⁻¹ s⁻¹.

As for B9, the Kd amounted to 0.26 nM, the koff came to 0.000213 s⁻¹ and the kon stood at 817000 M⁻¹ s⁻¹.

For the molecule B10, the dissociation constant (Kd) came out at 0.172 nM, the koff was found to be 0.000149 s⁻¹ and the kon is 858000 M⁻¹ s⁻¹.

In turn, B11 gave a Kd of 0.291 nM, a koff of 0.000279 s⁻¹ and a kon of 957000 M⁻¹ s⁻¹.

In the case of B12, binding was characterised by a dissociation constant (Kd) of 0.236 nM, the koff came to 0.000215 s⁻¹ and the association rate constant (kon) was found to be 914000 M⁻¹ s⁻¹.

The next test concerns the target T3, Pro-C1s. As to the kind of experiment: bio-layer interferometry (BLI), kinetic analysis.
B1 registered a Kd of 4.69 nM, a koff of 0.000299 s⁻¹ and an on-rate constant (kon) of 63700 M⁻¹ s⁻¹.

B2 yielded a Kd of 4.46 nM, a koff of 0.00036 s⁻¹ and a kon of 80800 M⁻¹ s⁻¹.

As for B3, binding was put at a Kd of 5.55 nM, the koff amounted to 0.000408 s⁻¹ and the kon came out at 73600 M⁻¹ s⁻¹.

Turning to B4, the affinity, expressed as Kd, was 0.3 nM; the off-rate constant (koff) came to 2.52e-05 s⁻¹; the kon was determined as 83800 M⁻¹ s⁻¹.

Consider B5, for which the Kd was found to be 11.1 nM, the off-rate constant (koff) came out at 0.000283 s⁻¹ and the kon stood at 25400 M⁻¹ s⁻¹.

With B6, binding was put at a Kd of 7.98 nM, the koff turned out to be 0.000339 s⁻¹ and the kon was found to be 42500 M⁻¹ s⁻¹.

In the case of B7, binding was put at a Kd of 7.17 nM, the koff turned out to be 0.000347 s⁻¹ and the kon was 48400 M⁻¹ s⁻¹.

Consider B8, for which the Kd was 1.89 nM, the koff was found to be 0.000395 s⁻¹ and the kon was 209000 M⁻¹ s⁻¹.

As for B9, the affinity, expressed as Kd, was 92.5 nM; the koff was determined as 0.000392 s⁻¹; the kon came out at 4120 M⁻¹ s⁻¹.

As to B10, the Kd is 3.37 nM, the off-rate constant (koff) was determined as 0.000194 s⁻¹ and the kon was determined as 57500 M⁻¹ s⁻¹.

B11 displayed a Kd of 42.3 nM, a koff of 0.000197 s⁻¹ and a kon of 4660 M⁻¹ s⁻¹.

B12 came in with a Kd of 16.7 nM, a koff of 0.000178 s⁻¹ and a kon of 10600 M⁻¹ s⁻¹.
